# Measurements from patent publication US20040247566A1.
# Biological target: human IL-9 receptor (human) (UniProt Q01113)
# Assay: cell-based or functional assay
# UniProt Q01113, sequence (Q01113 41-521, chain 1 of 2): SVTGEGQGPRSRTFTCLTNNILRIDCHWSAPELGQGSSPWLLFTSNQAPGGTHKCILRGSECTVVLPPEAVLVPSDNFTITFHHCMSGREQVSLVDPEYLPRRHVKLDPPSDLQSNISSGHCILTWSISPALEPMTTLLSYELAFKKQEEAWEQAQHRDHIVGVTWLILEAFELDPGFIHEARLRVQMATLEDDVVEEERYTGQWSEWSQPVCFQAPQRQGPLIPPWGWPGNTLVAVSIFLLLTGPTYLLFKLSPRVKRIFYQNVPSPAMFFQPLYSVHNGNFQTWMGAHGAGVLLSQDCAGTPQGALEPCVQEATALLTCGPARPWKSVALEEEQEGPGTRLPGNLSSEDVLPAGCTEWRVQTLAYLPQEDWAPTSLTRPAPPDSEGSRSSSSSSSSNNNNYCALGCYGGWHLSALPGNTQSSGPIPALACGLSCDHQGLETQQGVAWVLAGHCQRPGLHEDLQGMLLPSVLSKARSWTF
# UniProt Q01113, sequence (P31785 23-369, chain 2 of 2, further chain): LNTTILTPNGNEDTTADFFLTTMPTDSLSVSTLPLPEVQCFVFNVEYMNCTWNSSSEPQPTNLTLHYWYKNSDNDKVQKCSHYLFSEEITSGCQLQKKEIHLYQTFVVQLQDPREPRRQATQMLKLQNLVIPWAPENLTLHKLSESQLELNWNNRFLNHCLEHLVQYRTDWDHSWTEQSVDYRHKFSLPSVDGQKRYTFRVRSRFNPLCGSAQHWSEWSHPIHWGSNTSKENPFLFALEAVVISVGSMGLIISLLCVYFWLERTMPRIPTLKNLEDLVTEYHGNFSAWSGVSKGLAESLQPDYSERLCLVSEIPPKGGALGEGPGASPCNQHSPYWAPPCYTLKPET
"IC50, antagonism of IL-9 mediated Mo7e proliferation (0.357 nM wild-type IL-9) [nM]",Substance,"IC50, antagonism of IL-9-mediated eosinophil survival (7.14 nM wild-type IL-9) [nM]"
1.15,Amino-terminal Fc-fusion construct of the K126E/Q133K IL-9 mutein (Fc fusion),25.5
0.66,Carboxy-terminal Fc-fusion construct of the K126E/Q133K IL-9 mutein (Fc fusion),4.92
